# Test: soluble on expression in E. coli; label from the status in PepcDB or PDB records
row,Sequence,soluble on expression in E. coli
1,MSLMLEPNPTQIKEERIYAEMGLTDEEFAMVEKILGRLPNYTETGLFSVMWSEHCSYKNSKPVLRKFPTTGERVLQGPGEGAGIVDIGDNQAVVFKMESHNHPSAIEPYQGAATGVGGIIRDVFSMGARPVALLNSLRFGELQSPRVKYLFEEVVAGIAGYGNCIGIPTVGGEVQFDPCYEGNPLVNAMCVGLINHEDIKKGQAHGAGNTVMYVGASTGRDGIHGATFASEELSESSEAKRPAVQVGDPFMEKLLIEACLELIQSDALVGIQDMGAAGLTSSSAEMASKAGMGIEMYLDDVPQRETGMTPYEMMLSESQERMLIVVKKGREQEIVDLFEKYGLAAVTMGKVTEDKMLRLFHKGEMVAEVPADALAEEAPIYHKPSKEAAYFAEFQQMKMETPKVENYKETLFALLQQPTIASKEWVYDQYDYQVRTSTVVTPGSDAAVVRVRGTEKGLAMTTDCNSRYIYLDPEVGGKIAVAEAARNIVCSGGEPLAITDCLNFGNPEKPEIFWQIEKSVDGMSEACRTLQTPVIGGNVSMYNERSGEAVYPTPTVGMVGLVHDLKHVTTQEFKQAGDLVYVIGETKAEFGGSELQKMLHGKIFGQSPSIDLDVELKRQKQVLAAIQAGLVQSAHDVAEGGLAVAISESAIGANGLGATVKLDGEATAALFAESQSRFVITVKRENKEAFEKAVEAIQVGEVTNTNEVTIHNEENEVLLTANVDEMRKAWKGAIPCLLK,not soluble
2,MSLMRIVFDIGGSVLVPEKPDVDFITKLGYELTKISEDHEIAIVVGGGKVAREYIEVASKFNTNETFKDYLGIQITRANAMLLIAALKERAYPQVVSDFWEAWKAIQLKKIPVMGGTHPGHTTDAVSALLAEFLSADLLVVITNVDGVYTEDPKKNPNAKKIPKMKAKDLVDIVSREAGKAGVSTVIDPLAAKIIMRSGIKTYVIGKEDALKLFDVIKGNHNGTIIEPEGHHHHHH,soluble
3,MSLMTSVVPSFCHQDRRSNQRMKGLSPLAMAQVVTLGVLEPRAQGAVRWRRCWPERSTVGAIEAQRHWRPYLELSWAEKQQRDERQSQRASRVREEMFAKGQPLAPYNTTQFLMNDRDLEEPNLDVLHGPSHSGSGGENEAGDSDGQGRAHGEFQQRDFSEAYERYHTESLQGRSKQELVRDYLDLERRLSQAEQETRRLRQLQGCSSRQPCQQVEELAAEVERLRTENQRLRQENEMWNREGGYCDQEKPASEGTPWPKVEAPFQTHTGQLGHREAGDR,soluble
4,MSLNADTLEDIKKAGVIKAATEMQFPPFDFLEGDKYVGVDRDLMDEVAKELGVKVEYIDLPWTSVLPGLEAGKFDLVIAPVTITKERLARYAFTLPISEGTAALMKRADDDSITKPEDIAGKTIGGGKGTSQLGQIKEYAAALPGKVEFKEYVDSNQSYADLAAGRVDASVNSYPNLAYAAAQRPETFAVVLPPFGKTTYFSWVSRLGEKDASLVEAVNAALLKLGEDGRMSAIHEKWFGKGVDLPKEGHHHHHH,soluble
5,MSLNASEAVYKAILDSGVDFVTSVPCANLKTVLNYLNDNKDIQHIPVTREEEGIGVCAGAYLGGRKTALLMQNSGLGNSINAIGSLVKVYKIPILIIISHRGDLKEKISAQIPMGQWTKKLLETVEIPYFSPKTPDEAYKLIKDASELSINMEYPVAILLDALYWEHDKEGHHHHHH,soluble
6,MSLNDSFNPNENNPAEPSMELVVNGSGINVRSDAGIEHRVVRKASNGDRYKVLAVKNGWYKVGNGEWIFYDPSWIKINYNVPKEEVQKPKEEVQKPKDDITGGWFEGHIRKLNSLGIMQGEGNGVFAPYRNVTRAEFAKLISNALKLPEGNKSFVDINEAHPSLHDGIKRCASAGIINGRGEGIFDPNSPITREEVSIMIDKALRYKGITGELVALPFTDKHLITYKESVQRLYSLKVVNGIGNNEFDPRGTATRGQAAAFIVKMLDSMQKEGHHHHHH,soluble
7,MSLNEWALETDAEFLVYNALRETGRLLISPDAITKQKARHVMRQVIARYPLGSKHDKLWLAAVEMLHYYAPEVLQQLGIDLDAAKRDLAARILPNRFECQGPAIIRSQDLSDAQAAQACDVLDKKEQDFHQVANTGLAPVADDYNTRVEVVVFANNSSYVNYSSFLFGNTTDNGGQYLEGNPADQNNQARFVAYRYANDADLSILNLEHEYTHYLDARFNQYGSFSDNLAHGHIVWWLEGFAEYMHYKQGYQAAVKLISQGKLSLSDVFATTYSNDTNRIYRWGYLAVRFMLEKHPQDVESLLALSRTGQFDQWAQSVKLLGERYNTEFSAWLDTLQRDNEGHHHHHH,not soluble
8,MSLNGITKYVEKVKGLLFSSVQSQKRIEFSNNDEKVMLSNVPLIQQLPELDRGCEVTSLAMMLQYAGVSVDKMKLANEIKKVNFMEDGVRGNPNEGFVGNIYTFSESGYGVYHGPLFQLAKKYLPNKAVDLTGKSIEEIYKSVKAGHPVVMITNATYAPLDEDEFTTWETNSGDVSITYNEHCVVLVGYDKESVYIRDPLDDSLDVKVPREKFEQAWVQMGSQAISYVNKSKEGHHHHHH,soluble
9,MSLNHPSSTPVPPLDATPARALGEFIRAHRERLSPQAVGLPPGPRRRTPGLRREEVAQLCGVSPTWYTWIEQGRPVSASADALARIAVALQLSKAERAYLFELAAQRDPAEPDVAGGDLPPTLAATVAAIATPAYVMDRQWNALAWNTPAAALFSGWLDGEHDRNLLRFTFMSPAARTLIVDWETRARRMAAEFRADSIRHLTDAPTRALIDALTAGSDAFAQYWASQDVFEREGGLREFDHPADGRMVYQQITLKPAHREDLKLVVLVRDEGHHHHHH,soluble
10,MSLNIAVMEKGAAQPGDRLLSDVSLPALVIHNQALEHNIRWMQQFVTDSGAELAPHGKTSMVPALFRRQLDAGAWGMTLATAIQTQTAYAHGVKRVLMANQLVGAPNMAVIASLLADPMFEFHCMVDHPDNVAALGEFFAAHGLRLNVMIEYGVPGGRCGCRSEAEVLALADAVQAQPALALSGIEGYEGVIHGDQAIAGIKAFAASLVSLAVNLQDKGAFALDRPIVTASGSAWYDLIAEAFDAQAVRDRFLSVLRPGSYVVHDHGIYKDAQCCVLDRRAELSEALRPALEVWAHVQSMPEPGFAVIAMGKRDVAYDAGLPNPLLRYTPGVSSAPGDDVSACKVTAVMDQHAFMTVAADCELKVGDIISFGTSHPCLTFDKWRSGCLVDDDLRVIEPFHTCFEGHHHHHH,not soluble
11,MSLNKLAFLFPLLLAPGVAHAEPPQGVEFLHWWTSDGEQQALQTLKAQLKRHDIELLQSPVLGGGGDSAMTVLQARALAGNPPSFAQIEGPSIKAWDAIGILHNVNAVADEQRWDEVLYPLSIEINKTQNGYIALPLTLHRLNWLWVNHKLLKQLNLSAPKNWQEMFAAMELAEQNGIVPIAVGEQPWQVAQLFENLVISTGGVEFYTNAMVKLERDSIDSETLRQALTQFRRLSLLIDNQLPDSKWDTATQALADGQALFQIGGDWILGELLANQVSVPQEVGCYPTPDSDGVFLYNMDSLVFMSSKSFSSEAAQQTASALADVEFQAKFNKVKGSIPVRTDIDISDFNPCQVQSYQDFHYGVKHNLAVPSMIDSMAVNPVAQQAINSEIFRFYRNPKMEPDELIKRIIAISQSGEGHHHHHH,soluble
12,MSLNKTNYNNIISINQQREFVLFQNIQKECPLLVVFDLDDTLIHTHINTNNLCINSSDIFTIRVNEIKYYCEVRKGVVETLERLSKQFRIMIYTASKKEYADQVVSHLEKNCKLFSKILYREDCLEEEGFIYKTIHNINYNVKRIICIDDNPSAWKKLENVYVCKKYNGGIDDEMIDIEKTFIKCCILCFLFVEGHHHHHH,soluble
13,MSLNKYEPLFKSLTLPNGVEVRNRFVLAPLTHTSSNDDGTISDIELPYIEKRSKDVGIAINAASNVNDVGKAFPGQPSVAHDSDIEGLKELAQVMKKNGAKAIVQIHHGGAQALPELTPDGDVVAPSAISLKSFGQQKEHDAREMTAEEIEQTIRDFGEATRRAIEAGFDGVEIHGANHYLIHQFVSPYYNRRNDVWADNYKFPVAVIDEVVKAKKAHAYDDFIIGYRLSPEEAESPGISMEITEELIHQIANKPLDYIHVSLMDVNSVTREGKYKGENRLELIHQWINGRMPLIGIGSVFTAEDALNAVENIGVEFVALGCEILLDYDFVAKIKEGREDEIINAFDPNREDQHYLTPNLWEQFNQGFYPLPRKDKEGHHHHHH,soluble
14,MSLNLEKINELTAQDMAGVNAAILEQLNSDVQLINQLGYYIVSGGGKRIRPMIAVLAARAVGYEGNAHVTIAALIEFIHTATLLHDDVVDESDMRRGKATANAAFGNAASVLVGDFIYTRAFQMMTSLGSLKVLEVMSEAVNVIAEGEVLQLMNVNDPDITEENYMRVIYSKTARLFEAAAQCSGILAGCTPEEEKGLQDYGRYLGTAFQLIDDLLDYNADGEQLGKNVGDDLNEGKPTLPLLHAMHHGTPEQAQMIRTAIEQGNGRHLLEPVLEAMNACGSLEWTRQRAEEEADKAIAALQVLPDTPWREALIGLAHIAVQRDREGHHHHHH,soluble
15,MSLNPVDRPLLDIGLTRLEFLRISGKGLAGLTIAPALLSLLGCKQEDIDSGTVGLINTPKGVLVTQRARCTGCHRCEISCTNFNDGSVGTFFSRIKIHRNYFFGDNGVGSGGGLYGDLNYTADTCRQCKEPQCMNVCPIGAITWQQKEGCITVDHKRCIGCSACTTACPWMMATVNTESKKSSKCVLCGECANACPTGALKIIEWKDITEGHHHHHH,not soluble
16,MSLNREDRLVSAANSYLANNYECFLDDGVILTNNYSLLGTIKLGGIDFLTTSKKDLIELHASIYSVFRNFVTPEFKFYFHTVKKKIVIDETNRDYGLIFSNDFMRAYNEKQKRESFYDISFYLTIEQDLLDTLNEPVMNKKHFADNNFEEFQRIIRAKLENFKDRIELIEELLSKYHPTRLKEYTKDGIIYSKQCEFYNFLVGMNEAPFICNRKDLYLKEKMHGGVKEVYFANKHGKILNDDLSEKYFSAIEISEYAPKSQSDLFDKINALDSEFIFMHAYSPKNSQVLKDKLAFTSRRIIISGGSKEQGMTLGCLSELVGNGDITLGSYGNSLVLFADSFEKMKQSVKECVSSLNAKGFLANAATFSMENYFFAKHCSFITLPFIFDVTSNEGHHHHHH,soluble
17,MSLNRSSIAHFTASVFVLNESHDKILGIYHKIYQSWGWVGGHADGNADLLAVAVKEVQEETGLRSFKKLSEMPISIEALPVFGHHHRKYGYVSAHIHLNVTFLFEAKESDSLQKNTDETGGLAWIPLEKFSEKSSEKEMRVIYDKIITRIINKEGHHHHHH,not soluble
18,MSLNSLDTSASTINGASIIQVIFEIFEISLQRKDYTSIVQCCEFMTMLTPNYLHLVSSYLNKSDLLDKYGKTGLSNMILGSVELSTGDYTFTIQLLKLTKVFIRESLSLKNIHISKRSKIDIINKLILHAIHIFESYYNWKYNNFLQKFEIAFHLTLIFYDVLHDVFTINPHQKDQLIISSSANKLLQLFLTPMDSIDLAPNTLTNILISPLNTTTKILGDKILGNLYSKVMNNSFKLCTLLISIRGSNRDLKPSNLEKLLFINSSKLVDVYTLPSYVHFKVQIIELLSYLVEAPWNDDYPFLLSFLGEAKSMAFLKEVLSDLSSPVQDWNLLRSLYIFFTTLLESKQDGLSILFLTGQFASNKKINDESSIDKKSSILTVLQKNSLLLDSTPEEVSCKLLETITYVLNTWTNSKIFIKDPKFVNSLLAKLKDSKKLFQKKENLTRDETVSLIKKYKLISRIVEIFALCIYNSTDSNSEILNFLNQEDLFELVHHFFQIDGFNKTFHDELNLKFKEKWPSLELQSFQKIPLSRINENENFGYDIPLLDIVLKADRSWNEPSKSQTNFKEEITDASLNLQYVNYEISTAKAWGALITTFVKRSTVPLNDGFVDLVEHFLKLNIDFGSDKQMFTQIYLERIELSFYILYSFKLSGKLLKEEKIIELMNKIFTIFKSGEIDFIKNIGKSLKNNFYRPLLRSVLVLLELVSSGDRFIELISDQLLEFFELVFSKGVYLILSEILCQINKCSTRGLSTDHTTQIVNLEDNTQDLLLLLSLFKKITNLNPSKNFNVILASSLNEVGTLKVILNLYSSAHLIRINDEPILGQITLTFISELCSIEPIAAKLINSGLYSVLLESPLSVAIQQGDIKPEFSPRLHNIWSNGLLSIVLLLLSQFGIKVLPETCLFVSYFGKQIKSTIYNWGDNKLAVSSSLIKETNQLVLLQKMLNLLNYQELFIQPKNSDDQQEAVELVIGEGHHHHHH,not soluble

# — the DeepSol protein solubility set
